Ends that are not written are not given here. pIg22 = chimeric Ig-Fc consisting of the CH2 domain of PIg18 (IgG2 derivative) and the CH3 domain of IgG1
T1: FLAG-tagged cynomolgous APRIL (cynomolgus monkey, UniProt A0ACM8R0G4 110-250 (rhesus entry))
T1 construct: FLAG-tagged, expressed with TPA signal peptide; also called cyAPRIL
T1 sequence: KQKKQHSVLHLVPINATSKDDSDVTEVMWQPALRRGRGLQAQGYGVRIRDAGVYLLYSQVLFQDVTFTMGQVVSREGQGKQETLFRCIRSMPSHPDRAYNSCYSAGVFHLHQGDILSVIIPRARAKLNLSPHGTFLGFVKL


Key:
Assay in all cases: BIACORE SPR
FLAG-tagged human BAFF [1] = target: T2, FLAG-tagged human BAFF (human, UniProt Q9Y275 134-285, limits assumed)
T2 construct: used in BIACORE (Ex. 9) and KINEXA (Ex. 11); also called huBAFF
Protocol: (§1) For human BAFF, cynomolgus monkey APRIL, and mouse APRIL measurements, mouse monoclonal antibody (IgG1) anti-FLAG M2 (Sigma Aldrich, Cat. No. F1804) was immobilized on CM3 sensor chips (GE Healthcare, Cat. No. BR-1005-41) according to the manufacturer's protocol. Antibody was diluted to 30 μg/ml in immobilization buffer (10 mM pH 5±0.20; GE Healthcare; GE Healthcare, Catalog No. BR-1003-51). […] Unreacted sites were quenched with 35 μl of 1M ethanolamine-HCl, pH 8.5 (GE Healthcare, GE Healthcare, Cat. No. BR-1000-50). This procedure typically yielded 3,000-4,000 response units (RU) of coupled antibody.
(§2) The fusion polypeptides were diluted in HBS-EP buffer and flowed over ligand-coated sensor chips. The variant BCMA-Ig and surrogate control fusion proteins were injected at three concentrations (1.5 nM, 15 nM, and 150 nM at 30 μl/min for 2 minutes per association phase) in a single binding cycle, followed by a 20 minute incubation with HBS-EP buffer containing no protein at the same flow rate. A similar protocol was followed for Z-TACI-Ig, except that the injections were at 4.5 nM, 45 nM, and 450 nM.
(§3) Sequence optimization involved generating revertants from the variant BCMA ECD-Ig molecules using standard site-directed mutagenesis methods such as by SOEing as described herein above. Single as well as multiple revertants from twelve different variant-BCMA-pIg18 were generated, cloned in the pcDNA3.1 vector (Life Technologies, as described in Example 6), expressed and purified as described in Examples 6-8. The resulting proteins were assayed for their binding characteristics using Surface Plasmon Resonance as described in Example 9.

[2] = target: T1, FLAG-tagged cynomolgous APRIL
Protocol: as §1, §2, §3

FLAG-tagged human BAFF [3] = target: T2, FLAG-tagged human BAFF; remark: listed apart in the source
Protocol: as §1, §2
(§4) The various fusion proteins described above were expressed and purified as described previously (Examples 2 and 3 for the CET1019AS based plasmids and Examples 7 and 8 for the pcDNA based plasmids). […] The BAv9-1-Ig Fc proteins typically exist in solution as a dimeric fusion protein. The purified fusion proteins were assayed for binding activity using BIACORE (Example 9) and KINEXA (Example 11) assays.

[4] = target: T1, FLAG-tagged cynomolgous APRIL; remark: listed apart in the source
Protocol: as §1, §2, §4

Binder	fold improvement over control (FLAG-tagged human BAFF [1]) [fold]	fold improvement over control [2] [fold]	Kd (FLAG-tagged human BAFF [3]) [nM]	Kd [4] [nM]
Variant 50234224-Ig (Fc fusion, human, domain: Fc; also called Parent 6) AGQCSQNDYYDHLLRACIPCQLRCSSNNPPLTCQRYCNAGVTNSVKGTNAERKSSVECPPSPAPPVAGPSVFLFPPKPKDTLMISRTPEVTCVVVDVSHEDPEVQFNWYVDGVEVHNAKTKPREEQFNSTFRVVSVLTVVHQDWLNGKEYKCKVSNKGLPAPIEKTISKTKGQPREPQVYTLPPSREEMTKNQVSLTCLVKGFYPSDISVEWESNGQPENNYKTTPPMLDSDGSFFLYSKLTVDKSRWQQGNVFSCSVMHEALHNHYTQKSLSLSPGK	4.2	0.4		
Variant 50237844-Ig (Fc fusion, human, domain: Fc; also called Parent 7) AGQCSQSEYYDRLIRACIPCQLRCSSNNPPVICQRYCNAGVTNSVKGTNAERKSSVECPPSPAPPVAGPSVFLFPPKPKDTLMISRTPEVTCVVVDVSHEDPEVQFNWYVDGVEVHNAKTKPREEQFNSTFRVVSVLTVVHQDWLNGKEYKCKVSNKGLPAPIEKTISKTKGQPREPQVYTLPPSREEMTKNQVSLTCLVKGFYPSDISVEWESNGQPENNYKTTPPMLDSDGSFFLYSKLTVDKSRWQQGNVFSCSVMHEALHNHYTQKSLSLSPGK	5.5	0.5		
Variant 50237847-Ig (Fc fusion, human, domain: Fc; also called Parent 3) AGQCSQNEYYDHLLRACVSCHVRCSSNNPPAICQRYCNAGVTNSVKGTNAERKSSVECPPSPAPPVAGPSVFLFPPKPKDTLMISRTPEVTCVVVDVSHEDPEVQFNWYVDGVEVHNAKTKPREEQFNSTFRVVSVLTVVHQDWLNGKEYKCKVSNKGLPAPIEKTISKTKGQPREPQVYTLPPSREEMTKNQVSLTCLVKGFYPSDISVEWESNGQPENNYKTTPPMLDSDGSFFLYSKLTVDKSRWQQGNVFSCSVMHEALHNHYTQKSLSLSPGK	7.1	0.4		
Variant 50237854-Ig (Fc fusion, human, domain: Fc; also called Parent 4) AGQCSQNEYFDHLIRACIPCDVRCSSNNPPVTCQRYCNAGVTNSVKGTNAERKSSVECPPSPAPPVAGPSVFLFPPKPKDTLMISRTPEVTCVVVDVSHEDPEVQFNWYVDGVEVHNAKTKPREEQFNSTFRVVSVLTVVHQDWLNGKEYKCKVSNKGLPAPIEKTISKTKGQPREPQVYTLPPSREEMTKNQVSLTCLVKGFYPSDISVEWESNGQPENNYKTTPPMLDSDGSFFLYSKLTVDKSRWQQGNVFSCSVMHEALHNHYTQKSLSLSPGK	5.5	0.3		
Variant 50238494-Ig (Fc fusion, human, domain: Fc; also called Parent 11) AGQCSQSEYYDRLIHACVPCQLRCSSNNPPATCQRYCNAGVTNSVKGTNAERKSSVECPPSPAPPVAGPSVFLFPPKPKDTLMISRTPEVTCVVVDVSHEDPEVQFNWYVDGVEVHNAKTKPREEQFNSTFRVVSVLTVVHQDWLNGKEYKCKVSNKGLPAPIEKTISKTKGQPREPQVYTLPPSREEMTKNQVSLTCLVKGFYPSDISVEWESNGQPENNYKTTPPMLDSDGSFFLYSKLTVDKSRWQQGNVFSCSVMHEALHNHYTQKSLSLSPGK	7.6	1.3		
Variant 50238504R-Ig (Fc fusion, human, domain: Fc; also called Parent 8) AGQCSQNEYYDRLIRACLPCHVRCSSNTPPATCQRYCNAGVTNSVKGTNAERKSSVECPPSPAPPVAGPSVFLFPPKPKDTLMISRTPEVTCVVVDVSHEDPEVQFNWYVDGVEVHNAKTKPREEQFNSTFRVVSVLTVVHQDWLNGKEYKCKVSNKGLPAPIEKTISKTKGQPREPQVYTLPPSREEMTKNQVSLTCLVKGFYPSDISVEWESNGQPENNYKTTPPMLDSDGSFFLYSKLTVDKSRWQQGNVFSCSVMHEALHNHYTQKSLSLSPGK	4.5	0.2		
Variant 50238779-Ig (Fc fusion, human, domain: Fc; also called Parent 1) AQQCSQNEYFDRLVNSCVPCRLRCSSNNPPLTCQHYCNAGVTNSVKGTNAERKSSVECPPSPAPPVAGPSVFLFPPKPKDTLMISRTPEVTCVVVDVSHEDPEVQFNWYVDGVEVHNAKTKPREEQFNSTFRVVSVLTVVHQDWLNGKEYKCKVSNKGLPAPIEKTISKTKGQPREPQVYTLPPSREEMTKNQVSLTCLVKGFYPSDISVEWESNGQPENNYKTTPPMLDSDGSFFLYSKLTVDKSRWQQGNVFSCSVMHEALHNHYTQKSLSLSPGK	6.4	0.5		
Variant 50239040-Ig (Fc fusion, human, domain: Fc; also called Parent 10) ARQCSPSEYYDHLIRSCVPCQLRCSSNTPPVTCQRYCDAGVTNSVKGTNAERKSSVECPPSPAPPVAGPSVFLFPPKPKDTLMISRTPEVTCVVVDVSHEDPEVQFNWYVDGVEVHNAKTKPREEQFNSTFRVVSVLTVVHQDWLNGKEYKCKVSNKGLPAPIEKTISKTKGQPREPQVYTLPPSREEMTKNQVSLTCLVKGFYPSDISVEWESNGQPENNYKTTPPMLDSDGSFFLYSKLTVDKSRWQQGNVFSCSVMHEALHNHYTQKSLSLSPGK	9.3	0.3		
Variant 50239698-Ig (Fc fusion, human, domain: Fc; also called Parent 5) ARQCSQNEYYDRLLRSCVPCHVRCSSNNPPVTCQRYCNAGVTNSVKGTNAERKSSVECPPSPAPPVAGPSVFLFPPKPKDTLMISRTPEVTCVVVDVSHEDPEVQFNWYVDGVEVHNAKTKPREEQFNSTFRVVSVLTVVHQDWLNGKEYKCKVSNKGLPAPIEKTISKTKGQPREPQVYTLPPSREEMTKNQVSLTCLVKGFYPSDISVEWESNGQPENNYKTTPPMLDSDGSFFLYSKLTVDKSRWQQGNVFSCSVMHEALHNHYTQKSLSLSPGK	5.5	0.9		
Variant 50239978-Ig (Fc fusion, human, domain: Fc; also called Parent 12) ARQCSPNEYYDSLIRACVPCQLRCSSNNPPVTCQRYCNAGVTNSVKGTNAERKSSVECPPSPAPPVAGPSVFLFPPKPKDTLMISRTPEVTCVVVDVSHEDPEVQFNWYVDGVEVHNAKTKPREEQFNSTFRVVSVLTVVHQDWLNGKEYKCKVSNKGLPAPIEKTISKTKGQPREPQVYTLPPSREEMTKNQVSLTCLVKGFYPSDISVEWESNGQPENNYKTTPPMLDSDGSFFLYSKLTVDKSRWQQGNVFSCSVMHEALHNHYTQKSLSLSPGK	10.1	0.6		
Variant 50240054-Ig (Fc fusion, human, domain: Fc; also called Parent 2) AQQCSPNEYFDRLIRACIPCQLRCSSNTPPVTCQRYCNTGVTNSVKGTNAERKSSVECPPSPAPPVAGPSVFLFPPKPKDTLMISRTPEVTCVVVDVSHEDPEVQFNWYVDGVEVHNAKTKPREEQFNSTFRVVSVLTVVHQDWLNGKEYKCKVSNKGLPAPIEKTISKTKGQPREPQVYTLPPSREEMTKNQVSLTCLVKGFYPSDISVEWESNGQPENNYKTTPPMLDSDGSFFLYSKLTVDKSRWQQGNVFSCSVMHEALHNHYTQKSLSLSPGK	6.4	0.7		
AGQCSQNEYFDPLIRACIPCQVRCSSNTPPLTCQRYCNAGVTNSVGGGGS (Fc fusion, human, domain: Fc; not shown: PIg22: chimeric Fc, CH2 domain of PIg18 (human IgG2 derivative) and CH3 domain of human IgG1) [BAv49-5L-pIg22]			0.0141	1.76
AGQCSQNEYFDPLVRACIPCQVRCSSNTPPLTCQRYCNAGVTNSVGGGGS-pIg22 (Fc fusion, human, not fully specified; cysteine pairing not given here, domain: Fc; not shown: PIg22: chimeric Fc, CH2 domain of PIg18 (human IgG2 derivative) and CH3 domain of human IgG1) [BAv81-5L-pIg22]			0.00675	2.42
AGQCSQNEYFDPLVRACIPCQIRCSSNTPPLTCQRYCNAGVTNSVGGGGS-pIg22 (Fc fusion, human, not fully specified; cysteine pairing not given here, domain: Fc; not shown: PIg22: chimeric Fc, CH2 domain of PIg18 (human IgG2 derivative) and CH3 domain of human IgG1) [BAv83-5L-pIg22]			0.00861	0.861
AGQCSQNEYFDHLVRACIPCQARCSSNTPPLTCQRYCNAGVTNSVGGGGS-pIg22 (Fc fusion, human, not fully specified; cysteine pairing not given here, domain: Fc; not shown: PIg22: chimeric Fc, CH2 domain of PIg18 (human IgG2 derivative) and CH3 domain of human IgG1) [BAv85-5L-pIg22]			0.00676	0.784
